The term stoichiometry N denotes a count of units in the complex or per binding partner.

Experimental findings from PMC9206684 are described below.

Assay [1] concerns the target GST-tagged IGF2BP2 (human), Q9Y6M1. The assay is described as follows: cross-linking; cell suspension with 1.25 mM DSS, 30 min, 37 °C; nondenaturing lysis and PAGE, Western blot; monomer 65 kDa, homodimer 130 kDa; HEK293T (GST-IGF2BP2) and OVCAR3/CAOV3 (endogenous, with Ct-OATP1B3 or IGF2BP2 knockdown or overexpression). Particulars: remark: other sources report otherwise. (In general: A western blot detects proteins with antibodies after separation by electrophoresis.)

The target in assay [2] is insulin-like growth factor 2 mRNA-binding protein 2 (IGF2BP2), endogenous (human (endogenous in CAOV3 and OVCAR3)), Q9Y6M1. Described as above. To be noted: remark: other sources report otherwise.

B1: GST-tagged IGF2BP2, Q9Y6M1 1-599 (natural protein)
chain: MMNKLYIGNLSPAVTADDLRQLFGDRKLPLAGQVLLKSGYAFVDYPDQNWAIRAIETLSGKVELHGKIMEVDYSVSKKLRSRKIQIRNIPPHLQWEVLDGLLAQYGTVENVEQVNTDTETAVVNVTYATREEAKIAMEKLSGHQFENYSFKISYIPDEEVSSPSPPQRAQRGDHSSREQGHAPGGTSQARQIDFPLRILVPTQFVGAIIGKEGLTIKNITKQTQSRVDIHRKENSGAAEKPVTIHATPEGTSEACRMILEIMQKEADETKLAEEIPLKILAHNGLVGRLIGKEGRNLKKIEHETGTKITISSLQDLSIYNPERTITVKGTVEACASAEIEIMKKLREAFENDMLAVNQQANLIPGLNLSALGIFSTGLSVLSPPAGPRGAPPAAPYHPFTTHSGYFSSLYPHHQFGPFPHHHSYPEQEIVNLFIPTQAVGAIIGKKGAHIKQLARFAGASIKIAPAEGPDVSERMVIITGPPEAQFKAQGRIFGKLKEENFFNPKEEVKLEAHIRVPSSTAGRVIGKGGKTVNELQNLTSAEVIVPRDQTPDENEEVIVRIIGHFFASQTAQRKIREIVQQVKQQEQKYPQGVASQRSK
B1 came in with a stoichiometry N in assay [1] of 2.

B2: insulin-like growth factor 2 mRNA-binding protein 2 (IGF2BP2), endogenous, Q9Y6M1 1-599 (natural protein)
chain: B1 chain
Molecule B2 returned a stoichiometry N in assay [2] of 2.
